Like-named read-outs stand apart in the source and are kept apart here.
Experiments:
[1] = molecular target: T1, SNAP-25 peptide comprising amino acids 134-197 of SEQ ID NO:5 (human); experiment: SPR (BIAcore 3000), peptide on CM5 chip, 1:1 fit
[2] = molecular target: T1, SNAP-25 peptide comprising amino acids …

B1: α-SNAP-25 mouse monoclonal antibody 1D3B8 (antibody, V domains shown)
VH: QVKLQESGAELVKPGASVKISCKASGYIFTDHALHWVRQKPEQGLEWIGYIFPGNGNIEYNEKFKGKATLTADKSSSTAYMQLNSLTSGDSAMYFCKKMDYWGQGTTVTVSS
VL: DVLMTQTPLSLPVSLGDQASISCRSSQSIVHSNGNTYLEWYLQKPGQSPKLLIYKVSNRFSGVPDRFSGSGSGTDFTLKISRVEAEDLGVYYCFQGSHVPPTFGAGTKLELKR
[1]
  Kd: 0.05 nM
  koff: 5.78e-05 s⁻¹
  kon: 1.06e+06 M⁻¹ s⁻¹

B2: α-SNAP-25 mouse monoclonal antibody 2E2A6 (antibody, V domains shown)
VH: QVQLQQSDAELVKPGASVKISCRASGYTFTDHSIHWVKQQPGQGLEWIGYIFPGNGNIEYNDKFKGKATLTADKSSGTAYMQLNSLTSEDSAVYFCKRMGYWGQGTSVTVSS
VL: DVLMTQTPLTLSVTIGQPASISCKSSQSLLYTNGKTYLTWLFQRPGQSPKRLIYLVSELDSGVPDRFSGSGSGTDFTLEITRVEAEDLGVYYCLQSAHFPFTFGSGTKLEIKR
[1]
  Kd: 0.09 nM
  koff: 0.000153 s⁻¹
  kon: 1.7e+06 M⁻¹ s⁻¹
[2]
  Kd: 0.405 nM
  koff: 6.74e-05 s⁻¹
  kon: 166000 M⁻¹ s⁻¹

B3: α-SNAP-25 mouse monoclonal antibody 3C1A5 (antibody, V domains shown)
VH: QVKLQESGAELVKPGASVKISCKASGYTFTDHSIHWVKQKPGQGLEWIGYLFPGNGNFEYNEKFKGKATLTADKSSSTVYMYLNSLTSEDSAVYFCKRMGYWGQGTTVTVSS
VL: DVVMTQTPLTLSVTIGQPASISCKSSQSLLNTNGKTYLTWLIQRPGQSPQRLIYLVSKLDSGVPDRFSGSGSGTDFTLKISRVEAEDLGVYYCLQSSHFPFTFGSGTKLEIKR
[1]
  Kd: 1.33 nM
  koff: 0.000288 s⁻¹
  kon: 217000 M⁻¹ s⁻¹

B4: α-SNAP-25 mouse monoclonal antibody 2C9B10 (antibody, V domains shown)
VH: QVKLQESGAELVKPGASVKISCKASGYTFTDHSIHWVKQKPGQGLEWIGYLFPGNGNFEYNEKFKGKATLTADKSSSTAYMHLNSLTSEDSAVYFCKKMDYWGQGTTVTVSS
VL: DIQMTQSPASLSASVGETVTITCRTTENIYSYFVWSQQRQGKSPQLRVYNAKSLAEGVPSSFNVSVSGTQFSLKINSLQPEDFGTYHCQHHYGTPYTFGGGTRLEIRR
[1]
  Kd: 27.1 nM
  koff: 0.000311 s⁻¹
  kon: 11500 M⁻¹ s⁻¹

— patent US20170248602A1
